Patent US8518892B2, “Methods to treat symptoms of pathophysiology related to body mass” (Board of Supervisors of Louisiana State University and …, priority 2005, dated 2013)

Assays:
[1] = tested on: obese (ob/ob) mice; assay: Enho 1 ip for 8 days in obese (ob/ob) mice, serum lipids (Example 22); type: in vivo, mouse
Experimental: The effect of Enho-1 upon liver serum lipid content was tested over the course of 8 days using obese (ob/ob) mice. The mice were fed Research Diets 12450 and were approximately 9-10 weeks of age at the start of the experiment. Control mice received vehicle only while test mice each received doses of either 90 nmol/kg/d, 900 nmol/kg/d or 9000 nmol/kg/d. The injections were given as 3 ip injections at 0800, 1200 and 1600 h for 7 days. On day 8, the mice were given the 0800 h injection and were sacrificed 1-3 h later, at which time blood samples were taken.
Blood glucose levels were measured using an Accu-Chek glucometer. Insulin levels were measured by ELISA (Mercodia Mouse Insulin ELISA, ALPCO) while triglycerides were measured using a Triglyceride L-Type TG H kit (Wako Diagnostics).

[2] = tested on: KKAy mice; assay: Enho 1 ip for 3 days in KKAy mice (Examples 16-18); type: in vivo, mouse
Experimental: (§1) The effect of Enho-1 upon weight loss was tested over the course of 3 days using KKAy mice. The mice were fed Breeder Chow (Purina 5015) and were approximately 12-14 weeks of age at the start of the experiment. Six control mice received vehicle only while six test mice each received doses of either 900 nmol/kg/d or 9000 nmol/kg/d. The injections were given as 3 intraperitoneal (ip) injections at 0600, 1400 and 2000 h on days 1 and 2; over the 3 day period, the mice received a total of 7 injections. All animals were euthanized 5 hours after the last injection given the morning of the third day. Food was removed after the final injection.
as §1, with “insulin and glucose” for “weight loss”, “while five or” for “while”, “nmol/kg/d, respectively.” for “nmol/kg/d.”, “ip” for “intraperitoneal (ip)”, “injection. The HOMA-IR for each treatment was calculated using the following formula: ((glucose mg/dL÷18)×(insulin ng/ml×25.05))÷22.5” for “injection.”
as §1, with “liver weight, liver lipid content and liver TG” for “weight loss”, “while five or” for “while”, “nmol/kg/d, respectively.” for “nmol/kg/d.”, “ip” for “intraperitoneal (ip)”

[3] = 90 nmol/kg/d ip, listed as Enho-1
[4] = 900 nmol/kg/d ip, listed as Enho-1
[5] = 9000 nmol/kg/d ip, listed as Enho-1

B1: Enho 1: human Enho 1, a 76 amino acid peptide having the sequence SEQ ID NO: 14 (peptide, listed as Homo sapiens)
chain: MGAAISQGALIAIVCNGLVGFLLLLLWVILCWACHSRSADVDSLSESSPNSSPGPCPEKAPPPQKPSHEGSYLLQP
[1]; 90 nmol/kg/d ip
  TG (blood triglyceride level): 19.4 mg/dL
  TG decrease in comparison with the control: 34%
[1]; [3]
  TG (blood triglyceride level): 19.4 ± 2.2 mg/dL
  TG decrease in comparison with the control: (↓ 34%)
[1]; 900 nmol/kg/d ip
  TG (blood triglyceride level): 18.4 mg/dL
  TG decrease in comparison with the control: 38%
[1]; [4]
  TG (blood triglyceride level): 18.4 ± 2.3 mg/dL
  TG decrease in comparison with the control: (↓ 38%)
[1]; 9000 nmol/kg/d ip
  TG (blood triglyceride level): 22.0 mg/dL
  TG decrease in comparison with the control: 26%
[1]; [5]
  TG (blood triglyceride level): 22.0 ± 2.2 mg/dL
  TG decrease in comparison with the control: (↓ 26%)
[2]; 900 nmol/kg/d ip
  Blood glucose: 474 mg/dL
  HOMA-IR: 167
  HOMA-IR decrease as compared to the control group: 29%
  Insulin: 5.7 ng/mL
  Liver TG: 40 mg/g
  Liver TG total: 66 mg/g
  Liver lipid: 82 mg/g
  Liver lipid total: 137 mg/g
  Liver weight: 1.6 g
  Liver weight % body weight: 5.0%
  Weight (pre-treatment): 35.3 g
  Weight (termination): 33.0 g
  blood glucose levels decrease: approximately 10%
  insulin levels reduction: about 22%
  liver TG reduction as compared to the control group: 32%
[2]; [4]
  Blood glucose: 474 ± 29 mg/dL
  HOMA-IR: 167 ± 18
  HOMA-IR decrease as compared to the control group: (↓ 29%)
  Insulin: 5.7 ± 0.5 ng/mL
  Liver TG: 40 ± 8 mg/g
  Liver TG total: 66 ± 13 mg/g
  Liver lipid: 82 ± 9 mg/g
  Liver lipid total: 137 ± 18 mg/g
  Liver weight: 1.6 ± 0.1 g
  Liver weight % body weight: 5.0 ± 0.2%
  Weight (pre-treatment): 35.3 ± 1.1 g
  Weight (termination): 33.0 ± 1.0 g
[2]; 9000 nmol/kg/d ip
  Blood glucose: 480 mg/dL
  HOMA-IR: 213
  HOMA-IR decrease as compared to the control group: 9%
  Insulin: 7.0 ng/mL
  Liver TG total: 53 mg/g
  Liver lipid: 87 mg/g
  Liver lipid total: 143 mg/g
  Liver weight: 1.6 g
  Liver weight % body weight: 4.9%
  Weight (pre-treatment): 35.6 g
  Weight (termination): 33.1 g
  liver TG reduction as compared to the control group: 46%
[2]; 9000 nmol/kg/d ip, P < 0.05 vs control
  Liver TG: 32 mg/g
[2]; 9000 nmol/kg/d ip, P < 0.05 vs control, listed as Enho-1
  Liver TG: 32 ± 5 mg/g
[2]; [5]
  Blood glucose: 480 ± 38 mg/dL
  HOMA-IR: 213 ± 37
  HOMA-IR decrease as compared to the control group: (↓ 9%)
  Insulin: 7.0 ± 0.8 ng/mL
  Liver TG total: 53 ± 11 mg/g
  Liver lipid: 87 ± 6 mg/g
  Liver lipid total: 143 ± 17 mg/g
  Liver weight: 1.6 ± 0.1 g
  Liver weight % body weight: 4.9 ± 0.3%
  Weight (pre-treatment): 35.6 ± 0.6 g
  Weight (termination): 33.1 ± 0.4 g
